In paper PMC3608532, “Characterization of a Single-Chain Variable Fragment Recognizing a Linear Epitope of Aβ: A Biotechnical Tool for Studies on Alzheimer’s Disease?” (PLoS ONE, 2013) one finds Kd, koff and kon data, which are given here for one molecule.

Holding throughout (test): SPR; Biacore X; Aβ peptides coupled via the C-terminal cysteine to a CM5 chip; IC16 injected (10 to 1000 nM), 20 µl/min, PBS, 25°C; global fit, bivalent binding model
Common to all, as to conditions: both partners purified

One test deals with T1, Aβ(1-8)-GSGSC (human).
T1 construct: amyloid-β peptide (Aβ), cut from the amyloid precursor protein (APP), human, residues 1-8; C-terminal spacer with the cysteine by which the peptide was coupled to the chip; source: synthetic peptide, bought: JPT
T1 chain: DAEFRHDSGSGSC

In the next test the target is T2, Aβ(2-8)-GSGSC (human).
T2 construct: amyloid-β peptide (Aβ), cut from the amyloid precursor protein (APP), human, residues 2-8; C-terminal spacer with the cysteine by which the peptide was coupled to the chip; source: synthetic peptide, bought: JPT
T2 chain: AEFRHDSGSGSC

Another test addresses T3, Aβ(3-8)-GSGSC (human).
T3 construct: amyloid-β peptide (Aβ), cut from the amyloid precursor protein (APP), human, residues 3-8; C-terminal spacer with the cysteine by which the peptide was coupled to the chip; source: synthetic peptide, bought: JPT
T3 chain: EFRHDSGSGSC

B1: monoclonal IgG2a antibody IC16 (antibody, V domains shown)
VH: QVTLKESGPGILQPSQTLSLTCSFSGFSLSTSGMGVSWIRQPSGKGLEWLAHIFWDDDKNYNPSLKSRLTVSKDTSRNQVFLKITSVDTSDTATYYCARSPHLRGYDVDFDYWGQGTTLTVSS
VL: DVLMTQTPLSLPVSLGDQASISCRSSQSLVHSNGNTYLHWYLQKPGQSPKVLIYKVSNRFSGVPDRFSGSGSGTDFTLKISRVEAEDLGVYFCSQSTHVPLTFGAGTKLELK
notes: IgG2a; raised in a PrP knockout mouse against KLH Aβ(1-16); also called monoclonal parent antibody IC16; source: IC16 hybridoma (mouse); copies: 2 + 2
As a reminder, the koff is the first-order rate constant of dissociation. High values mean fast dissociation, low ones slow dissociation. The term kon denotes the second-order rate constant of association. With B1, in the test with Aβ(1-8)-GSGSC, the Kd worked out at 51 nM, the koff amounted to 0.0018 s⁻¹ and the kon was determined as 35000 M⁻¹ s⁻¹. Besides, in the test with Aβ(2-8)-GSGSC, the Kd stood at 32 nM, the koff amounted to 0.00154 s⁻¹ and the on-rate (kon) stood at 48500 M⁻¹ s⁻¹. In the test with Aβ(3-8)-GSGSC, this molecule had a Kd of 82 nM, a koff of 0.00343 s⁻¹ and a kon of 41700 M⁻¹ s⁻¹.
